Test results taken from US5622933A, “Multiple branch peptide constructions for use against HIV” (priority 1993, dated 1997).
Several values for one entry are separate records, joined by “and”; a condition that tells them apart may be missing. Identical values can stand only once. Entries after “also recorded” stand apart in the source; their conditions may differ. Ends that are not written are not given here.

Tests used:
HIV [1] = experiment: Inhibition of syncytia formation induced by HIV (summary statements); assay type: cell-based
Protocol: CEM or C8166 cells were chronically infected with HIV-1 Lai or HIV-2 Rod, or HIV-1MN, respectively. Infected cells (1×10^4) were incubated for 2 hours with various concentrations of MBPCs in 96-well plates. Uninfected Molt-4 cells (4×10^4) were then added in […]. Syncytia were counted after 18 hours at 37° C.

HIV [2] = experiment: Infection of HT-29 human colon cells through the GalCer receptor; assay type: cell-based
Protocol: The activity of MBPCs was evaluated on this alternative infection route as follows: HT-29 cells (5×10^5 cells) were incubated with MBPCs (5×10^-6 M) for 45 minutes and subsequently exposed to 100 TCID50 of HIV-1 (LAI), HIV-1 (NDK) or HIV-2 (ROD) for 1 hour at 37° C. The residual inoculum was inactivated by three successive trypsinations and infection was assessed by: i) direct measurement of HIV-1 p24^gag (for HIV-1 isolates) and RT activity (for HIV-1 and HIV-2 isolates) in the culture supernatants; ii) co-cultivation with human PBLs. The cells were treated with the MBPCs as follows: 1- none; 2- [GPGRAF]8 -MLC; 3- [GPGRAF]8 -MLCD; 4- [GPG(R)DAF]8 -MLC; 5- [GPGRAF]16 -MLC; 6- [[…]]4 -MLC; and 7- [[…]]4 -MLC, with all amino acids in L form unless noted otherwise. The results shown in FIG. 5A, which correspond to infection with HIV-1 (NDK), are representative of three separate experiments and the MBPC used is indicated by the number on the x-axis. The concentration of p24^gag (pg/ml) was measured during the co-culture experiment with PBLs (+++, >10 ng/ml 10 days post-infection; ++, >1 ng/ml 13 days post-infection; +, >1 ng/ml 16 days post-infection; -, no detectable p24^gag 1 month post-infection). Similar results were obtained with HIV-1 (LAI) and HIV-2 (ROD).

HIV-1 (LAI) = experiment: Fusion between chronically infected CEM cells and MT-2 cells; assay type: cell-based; details: separate tests
HIV-1 (89.6) = experiment: Infection of and syncytia formation in human primary macrophages; assay type: cell-based; details: 5×10^-5 M; for inhibition of macrophage infection, in words: 10,000 TCID50
Protocol: MBPCs were also evaluated for their ability to block the infection of human primary macrophages by a highly cytopathic macrophage-tropic isolate, HIV-1 (89.6). Mononuclear cells were isolated from leukophoresis units enriched for monocytes by Ficoll-Hypaque density separation. Macrophages were purified by adherence to plastic in RPMI 1640 supplemented with 10% fetal calf serum and 5% human AB serum. […] 5×10^5 cells were treated for 45 minutes with the indicated MBPC at concentrations of 5×10^-5 M and subsequently exposed to 10,000 TCID50 of the macrophage-tropic isolate HIV (89.6). […] After thorough washing, the cells were fed again with medium and analyzed for HIV-1 p24^gag production and syncytia formation 4 days post-infection.

HIV-2 (ROD) = experiment: Fusion between chronically infected CEM cells and MT-2 cells; assay type: cell-based; details: separate tests
New Zealand rabbits = experiment: Immunogenicity in rabbits (serum ELISA for anti MBPC.3 antibodies); assay type: in vivo, rabbit
Protocol: […] This procedure was repeated subcutaneously with incomplete Freud's adjuvant on days 30, 60, 90 and 120. Sera were tested by ELISA, looking for specific anti MBPC.3 antibodies. Data presented here is from the last serum samples (120+7 days).
[…] After saturation with 400 μL of casein (5 g/100 ml), different serum dilutions were added for 2 hours at 37° C. The controls were sera from non-immunized rabbits and mice. After rinsing (5×), 50 μl of 1:5000 of peroxidase-labeled swine anti-rabbit IgG or anti-mouse IgG (Dakopatts, Copenhagen, Denmark) were added for 1 hour at 37° C. After further rinsing (5×), 100 μl of ortho-phenylenediamine were added for 30 min in the dark at room temperature. The reaction was stopped by adding 50 μl of 4N sulfuric acid, and optical density (OD) ratios were determined at 492/620 nm.

8E5 cells = experiment: Toxicity in the cell fusion test (MTT assay or trypan blue exclusion); assay type: cell-based; details: 5 × 10^-5 M; listed as [RKSIHIGPGRAFYT]4 -MLC

(GPGRAF)8 -(K)4 -(K)2 -K-βA-OH [MBPC.3] was tested, and the “MBPC concentration with which inhibiting effect on syncytia formation was observed in vitro” value (HIV [1]) was “around 10^-6 M”, the “block of the infectivity of HIV on human colon cells” value (HIV [2]) was “completely block” and the block of fusion (HIV-1 (LAI)) was “able to block the fusion”. The “inhibition of macrophage infection, in words” value (HIV-1 (89.6)) was “able to inhibit infection”, the “giant cells (syncytia) in macrophage cultures” value (HIV-1 (89.6); pretreated, 4 days post-infection) was “very few giant cells” and the block of fusion (HIV-2 (ROD)) was “able to block the fusion”. The “optical density (OD) ratio 492/620 nm (×10^3)” value (New Zealand rabbits; plate 1, rabbit serum 10^-2, coat 0.5 μg MBPC.3/ml) was 968 and 981, the “optical density (OD) ratio 492/620 nm (×10^3)” value (New Zealand rabbits; plate 1, rabbit serum 10^-2, coat 1 μg MBPC.3/ml) was 1280 and 1267 and the “optical density (OD) ratio 492/620 nm (×10^3)” value (New Zealand rabbits; plate 1, rabbit serum 10^-2, coat 5 μg MBPC.3/ml) was 2000. The “optical density (OD) ratio 492/620 nm (×10^3)” value (New Zealand rabbits; plate 1, rabbit serum 10^-2, coat 10 μg MBPC.3/ml) was 2000, the “optical density (OD) ratio 492/620 nm (×10^3)” value (New Zealand rabbits; plate 1, rabbit serum 10^-3, coat 0.5 μg MBPC.3/ml) was 318 and 296 and the “optical density (OD) ratio 492/620 nm (×10^3)” value (New Zealand rabbits; plate 1, rabbit serum 10^-3, coat 1 μg MBPC.3/ml) was 346 and 349. For the same substance, the “optical density (OD) ratio 492/620 nm (×10^3)” value (New Zealand rabbits; plate 1, rabbit serum 10^-3, coat 5 μg MBPC.3/ml) was 2000, the “optical density (OD) ratio 492/620 nm (×10^3)” value (New Zealand rabbits; plate 1, rabbit serum 10^-3, coat 10 μg MBPC.3/ml) was 2000 and the “optical density (OD) ratio 492/620 nm (×10^3)” value (New Zealand rabbits; plate 1, rabbit serum 10^-4, coat 0.5 μg MBPC.3/ml) was 145 and 140. For the same substance, the “optical density (OD) ratio 492/620 nm (×10^3)” value (New Zealand rabbits; plate 1, rabbit serum 10^-4, coat 1 μg MBPC.3/ml) was 182 and 193, the “optical density (OD) ratio 492/620 nm (×10^3)” value (New Zealand rabbits; plate 1, rabbit serum 10^-4, coat 5 μg MBPC.3/ml) was 796 and 809 and the “optical density (OD) ratio 492/620 nm (×10^3)” value (New Zealand rabbits; plate 1, rabbit serum 10^-4, coat 10 μg MBPC.3/ml) was 924 and 823. For the same substance, the “optical density (OD) ratio 492/620 nm (×10^3)” value (New Zealand rabbits; plate 2, rabbit serum 10^-2, coat 5 μg MBPC.3/ml) was 2000, the “optical density (OD) ratio 492/620 nm (×10^3)” value (New Zealand rabbits; plate 2, rabbit serum 10^-2, coat 10 μg MBPC.3/ml) was 2000 and the “optical density (OD) ratio 492/620 nm (×10^3)” value (New Zealand rabbits; plate 2, rabbit serum 10^-3, coat 0.5 μg MBPC.3/ml) was 197 and 181. For the same substance, the “optical density (OD) ratio 492/620 nm (×10^3)” value (New Zealand rabbits; plate 2, rabbit serum 10^-3, coat 5 μg MBPC.3/ml) was 2000, the “optical density (OD) ratio 492/620 nm (×10^3)” value (New Zealand rabbits; plate 2, rabbit serum 10^-3, coat 10 μg MBPC.3/ml) was 2000 and the “optical density (OD) ratio 492/620 nm (×10^3)” value (New Zealand rabbits; plate 2, rabbit serum 10^-4, coat 0.5 μg MBPC.3/ml) was 80 and 74. For the same substance, the “optical density (OD) ratio 492/620 nm (×10^3)” value (New Zealand rabbits; plate 2, rabbit serum 10^-4, coat 1 μg MBPC.3/ml) was 113 and 84, the “optical density (OD) ratio 492/620 nm (×10^3)” value (New Zealand rabbits; plate 2, rabbit serum 10^-4, coat 5 μg MBPC.3/ml) was 678 and 626 and the “optical density (OD) ratio 492/620 nm (×10^3)” value (New Zealand rabbits; plate 2, rabbit serum 10^-4, coat 10 μg MBPC.3/ml) was 734 and 689. For the same substance, the “optical density (OD) ratio 492/620 nm (×10^3)” value (New Zealand rabbits; plate 3, rabbit serum 10^-2, coat 0.5 μg MBPC.3/ml) was 416 and 287, the “optical density (OD) ratio 492/620 nm (×10^3)” value (New Zealand rabbits; plate 3, rabbit serum 10^-2, coat 1 μg MBPC.3/ml) was 402 and 401 and the “optical density (OD) ratio 492/620 nm (×10^3)” value (New Zealand rabbits; plate 3, rabbit serum 10^-2, coat 5 μg MBPC.3/ml) was 857 and 868. For the same substance, the “optical density (OD) ratio 492/620 nm (×10^3)” value (New Zealand rabbits; plate 3, rabbit serum 10^-2, coat 10 μg MBPC.3/ml) was 818 and 953, the “optical density (OD) ratio 492/620 nm (×10^3)” value (New Zealand rabbits; plate 3, rabbit serum 10^-3, coat 0.5 μg MBPC.3/ml) was 148 and 155 and the “optical density (OD) ratio 492/620 nm (×10^3)” value (New Zealand rabbits; plate 3, rabbit serum 10^-3, coat 1 μg MBPC.3/ml) was 168 and 150. The “optical density (OD) ratio 492/620 nm (×10^3)” value (New Zealand rabbits; plate 3, rabbit serum 10^-3, coat 5 μg MBPC.3/ml) was 323 and 314, the “optical density (OD) ratio 492/620 nm (×10^3)” value (New Zealand rabbits; plate 3, rabbit serum 10^-3, coat 10 μg MBPC.3/ml) was 342 and 328 and the “optical density (OD) ratio 492/620 nm (×10^3)” value (New Zealand rabbits; plate 3, rabbit serum 10^-4, coat 0.5 μg MBPC.3/ml) was 64 and 69. The “optical density (OD) ratio 492/620 nm (×10^3)” value (New Zealand rabbits; plate 3, rabbit serum 10^-4, coat 1 μg MBPC.3/ml) was 72 and 89, the “optical density (OD) ratio 492/620 nm (×10^3)” value (New Zealand rabbits; plate 3, rabbit serum 10^-4, coat 5 μg MBPC.3/ml) was 170 and 169 and the “optical density (OD) ratio 492/620 nm (×10^3)” value (New Zealand rabbits; plate 3, rabbit serum 10^-4, coat 10 μg MBPC.3/ml) was 191 and 184. The “optical density (OD) ratio 492/620 nm (×10^3)” value (New Zealand rabbits; plate 4, rabbit serum 10^-2, coat 0.5 μg MBPC.3/ml) was 424 and 425, the “optical density (OD) ratio 492/620 nm (×10^3)” value (New Zealand rabbits; plate 4, rabbit serum 10^-2, coat 1 μg MBPC.3/ml) was 419 and 447 and the “optical density (OD) ratio 492/620 nm (×10^3)” value (New Zealand rabbits; plate 4, rabbit serum 10^-2, coat 5 μg MBPC.3/ml) was 749 and 792. For the same substance, the “optical density (OD) ratio 492/620 nm (×10^3)” value (New Zealand rabbits; plate 4, rabbit serum 10^-2, coat 10 μg MBPC.3/ml) was 849 and 843, the “optical density (OD) ratio 492/620 nm (×10^3)” value (New Zealand rabbits; plate 4, rabbit serum 10^-3, coat 0.5 μg MBPC.3/ml) was 163 and 154 and the “optical density (OD) ratio 492/620 nm (×10^3)” value (New Zealand rabbits; plate 4, rabbit serum 10^-3, coat 1 μg MBPC.3/ml) was 221 and 151. For the same substance, the “optical density (OD) ratio 492/620 nm (×10^3)” value (New Zealand rabbits; plate 4, rabbit serum 10^-3, coat 5 μg MBPC.3/ml) was 310 and 304, the “optical density (OD) ratio 492/620 nm (×10^3)” value (New Zealand rabbits; plate 4, rabbit serum 10^-3, coat 10 μg MBPC.3/ml) was 332 and 314 and the “titers of anti-GPGRAF antibodies” value (New Zealand rabbits; rabbits injected) was “did not produce significant titers”.
In the case of “(RKSIHIGPGRAFYT)4 -(K)2 -K-βA-OH (also: four copies on lysine core (K)2-K-βA-OH) [MBPC.5, tetradecapeptide MBPC]”, the “inhibiting effect on syncytia formation, in words” value (HIV [1]) is reported as “inhibiting effect at a slightly higher concentration”, the Toxicity (8E5 cells) is reported as “Toxic; also recorded: induced some toxicity” and the “inhibition of macrophage infection, in words” value (HIV-1 (89.6)) is reported as “able to inhibit infection”.
